Target: murine monoclonal antibody 2A4 (ATCC Accession Number PTA-9662)
Assay: Competition ELISA; mouse AA (AEF) in solution competing with adsorbed human AA amyloid extract for mAb 2A4

Sequence of murine monoclonal antibody 2A4 (ATCC Accession Number PTA-9662) (VL, as listed by the source, chain 1 of 2): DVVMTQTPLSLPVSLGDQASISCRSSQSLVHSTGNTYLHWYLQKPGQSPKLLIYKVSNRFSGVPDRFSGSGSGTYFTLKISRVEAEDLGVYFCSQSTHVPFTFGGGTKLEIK
Sequence of murine monoclonal antibody 2A4 (ATCC Accession Number PTA-9662) (VH, as listed by the source, chain 2 of 2): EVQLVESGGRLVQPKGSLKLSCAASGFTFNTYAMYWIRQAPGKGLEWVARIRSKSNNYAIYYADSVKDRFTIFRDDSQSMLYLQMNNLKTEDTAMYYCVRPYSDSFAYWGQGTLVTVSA
Sequence of murine AA amyloid (AA fibrils; amyloid enhancing factor extract, AEF) (P05367 20-94): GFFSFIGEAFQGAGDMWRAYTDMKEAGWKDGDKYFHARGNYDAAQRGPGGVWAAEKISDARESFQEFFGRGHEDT

IC50: 14.7 µg/mL
Substance: murine AA amyloid (AA fibrils; amyloid enhancing factor extract, AEF)
